The values below come from patent US20110207796A1, “ALPHA-SYNUCLEIN KINASE” (Elan Pharma International Limited, priority 2008, published 2011).

This experiment deals with human alpha-synuclein (wild-type, recombinant) (human). Description: cell-based or functional assay.

Sequence of Polo like kinase 2 (PLK2) (enzyme) (chain): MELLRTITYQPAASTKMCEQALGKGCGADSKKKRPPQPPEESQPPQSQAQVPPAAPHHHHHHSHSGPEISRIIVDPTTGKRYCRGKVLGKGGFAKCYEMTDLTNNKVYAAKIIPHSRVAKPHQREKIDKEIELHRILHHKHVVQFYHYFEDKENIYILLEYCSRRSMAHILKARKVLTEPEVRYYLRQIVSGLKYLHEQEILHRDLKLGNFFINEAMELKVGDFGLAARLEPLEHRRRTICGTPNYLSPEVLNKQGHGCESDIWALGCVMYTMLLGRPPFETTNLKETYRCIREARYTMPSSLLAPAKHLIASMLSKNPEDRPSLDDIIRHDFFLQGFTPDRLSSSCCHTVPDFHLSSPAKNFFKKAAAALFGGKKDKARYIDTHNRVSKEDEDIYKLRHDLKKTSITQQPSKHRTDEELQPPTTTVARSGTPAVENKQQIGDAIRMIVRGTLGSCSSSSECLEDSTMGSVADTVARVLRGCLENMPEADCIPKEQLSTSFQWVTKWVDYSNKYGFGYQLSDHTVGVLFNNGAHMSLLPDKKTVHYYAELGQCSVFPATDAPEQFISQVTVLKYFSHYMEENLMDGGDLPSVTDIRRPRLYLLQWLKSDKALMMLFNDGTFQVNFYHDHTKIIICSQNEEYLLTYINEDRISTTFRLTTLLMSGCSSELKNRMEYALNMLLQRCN
Sequence of CDC7 cell division cycle 7-like 1 (O00311 whole entry): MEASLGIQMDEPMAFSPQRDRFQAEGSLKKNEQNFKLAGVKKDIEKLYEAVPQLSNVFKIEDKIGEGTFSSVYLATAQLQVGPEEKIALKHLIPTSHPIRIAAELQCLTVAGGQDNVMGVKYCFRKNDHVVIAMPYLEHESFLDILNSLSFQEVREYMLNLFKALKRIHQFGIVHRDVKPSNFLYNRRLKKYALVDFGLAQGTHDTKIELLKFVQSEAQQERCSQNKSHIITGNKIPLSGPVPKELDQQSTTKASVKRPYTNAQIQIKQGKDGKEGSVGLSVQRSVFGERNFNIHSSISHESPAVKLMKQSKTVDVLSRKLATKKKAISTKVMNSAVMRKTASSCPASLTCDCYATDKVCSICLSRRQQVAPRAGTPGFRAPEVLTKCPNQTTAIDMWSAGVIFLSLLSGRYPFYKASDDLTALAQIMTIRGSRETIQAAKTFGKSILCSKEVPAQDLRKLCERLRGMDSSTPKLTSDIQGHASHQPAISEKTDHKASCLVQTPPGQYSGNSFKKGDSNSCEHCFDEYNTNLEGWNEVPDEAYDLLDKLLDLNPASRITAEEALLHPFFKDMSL
Sequence of G protein-coupled receptor kinase 6 (P43250 whole entry): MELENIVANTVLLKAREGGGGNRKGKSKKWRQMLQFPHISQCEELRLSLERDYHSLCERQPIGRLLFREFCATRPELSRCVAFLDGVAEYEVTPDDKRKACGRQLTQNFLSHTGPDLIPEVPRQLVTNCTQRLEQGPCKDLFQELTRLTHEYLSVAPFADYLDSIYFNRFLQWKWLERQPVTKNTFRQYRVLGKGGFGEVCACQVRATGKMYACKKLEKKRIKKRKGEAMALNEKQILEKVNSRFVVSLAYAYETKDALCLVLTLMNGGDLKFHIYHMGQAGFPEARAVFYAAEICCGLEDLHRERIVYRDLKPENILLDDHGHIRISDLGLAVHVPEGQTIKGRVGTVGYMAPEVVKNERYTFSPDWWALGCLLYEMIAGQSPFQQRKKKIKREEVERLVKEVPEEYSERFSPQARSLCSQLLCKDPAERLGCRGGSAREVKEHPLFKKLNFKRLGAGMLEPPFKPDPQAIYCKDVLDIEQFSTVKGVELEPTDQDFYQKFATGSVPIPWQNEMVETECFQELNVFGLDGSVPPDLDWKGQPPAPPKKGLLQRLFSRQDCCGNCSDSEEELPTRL
Sequence of Aortic preferentially expressed gene 1 (Q15772 other isoform, or with tags, fused parts or gaps limits assumed): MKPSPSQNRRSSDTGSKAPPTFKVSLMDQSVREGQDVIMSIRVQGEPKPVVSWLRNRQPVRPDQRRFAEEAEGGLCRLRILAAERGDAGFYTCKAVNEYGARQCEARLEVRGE

“Aortic preferentially expressed gene 1 (from UniProt Q15772 1-113) (enzyme)”: the percentage of phospho-synuclein by ELISA, cDNA transfected into PEAK-Syn cells was found to be 8.9%.

Take “CDC7 cell division cycle 7-like 1 (from UniProt O00311 1-574) (enzyme)”: the percentage of phospho-synuclein by ELISA, cDNA transfected into PEAK-Syn cells is 8.9%.

Turning to “G protein-coupled receptor kinase 6 (from UniProt P43250 1-576) (enzyme)”, the percent phospho-synuclein by ELISA, cDNA transfected into PEAK-Syn cells worked out at 18.9%.

As for Polo like kinase 2 (PLK2) (enzyme), the percent phospho-synuclein by ELISA, PLK2 alone transfected into HEK-synuclein cells is 18.6%; the percent phospho-synuclein by ELISA, PLK2 and synuclein co-transfected into naive HEK cells came to 60%; the percent phospho-synuclein by ELISA, cDNA transfected into PEAK-Syn cells turned out to be 33.2%; the percent synuclein phosphorylation by ELISA, PLK2 positive control in HEK-syn cells was 65.8%. Further, the phospho-synuclein by ELISA, PLK2 cDNA transfected into 293-synuclein cells came out at 4.3 fold.
